B1: LB-116 (antibody, V domains shown)
VH: EVQLLESGGGLVQPGGSLRLSCAASGFTFSYSYMYWVRQAPGKGLEWVSSISSSGGSTSYADSVKGRFTISRDNSKNTLYLQMNSLRAEDTAVYYCARPNVDSYMDYWGQGTLVTVSS
VL: DIQMTQSPSSLSASVGDHVTITCRASQSISSYLNWYQQKPGKAPKLLIYAASSLQSGVPSRFSGSGSGTDFTLTISSLQPEDFATYYCQQSYIYLPFTFGQGTKLEIK
B2: LB-302 (antibody, V domains shown)
VH: EVQLLESGGGLVQPGGSLRLSCAASGFTFGGYGMSWVRQAPGKGLEWVSYIGYGGSYTYYADSVKGRFTISRDNSKNTLYLQMNSLRAEDTAVYYCARDGAGSYGFFDYWGQGTLVTVSS
VL: DIQMTQSPSSLSASVGDHVTITCRASQSISSYLNWYQQKPGKAPKLLIYAASSLQSGVPSRFSGSGSGTDFTLTISSLQPEDFATYYCQQFYTNPLLTFGQGTKLEIK
B3: LB-032 (antibody, V domains shown)
VH: EVQLLESGGGLVQPGGSLRLSCAASGFTFGSYGMSWVRQAPGKGLEWVSYISYSGSYTYYADSVKGRFTISRDNSKNTLYLQMNSLRAEDTAVYYCARGADYYSVLDYWGQGTLVTVSS
VL: DIQMTQSPSSLSASVGDHVTITCRASQSISSYLNWYQQKPGKAPKLLIYAASSLQSGVPSRFSGSGSGTDFTLTISSLQPEDFATYYCQQFSTSPPSTFGQGTKLEIK
B4: LB-20H10 (antibody, V domains shown)
VH: QVQLQQSGAELVRPGTSVKMSCKAAGYTFTNYWIGWVKQRPGHGLEWIGDIYPGGGYTHHNEKFKGKATLTADTSSSTAYMQLSSLTSEDSAIYYCARSVLPGFAYWGQGTLVTVSA
VL: DIVMTQSHKFMSTSVGDRVSITCKASQDVNTAVAWCQQKPGQSPKLLIYSASYRFTGVPDRFTGSGSGTDFTFTISSVQAEDLAVYFCQQHYSTPYTFGGGTKLEIK
B5: LB-031 (antibody, V domains shown)
VH: EVQLLESGGGLVQPGGSLRLSCAASGFTFGSYYMGWVRQAPGKGLEWVSYISGYSGYTYYADSVKGRFTISRDNSKNTLYLQMNSLRAEDTAVYYCARFSSPAGYPRMDYWGQGTLVTVSS
VL: DIQMTQSPSSLSASVGDHVTITCRASQSISSYLNWYQQKPGKAPKLLIYAASSLQSGVPSRFSGSGSGTDFTLTISSLQPEDFATYYCQQYYTLPTFGQGTKLEIK

Molecular target: T1, SLAMF6 (human, UniProt Q96DU3)
T1 chain: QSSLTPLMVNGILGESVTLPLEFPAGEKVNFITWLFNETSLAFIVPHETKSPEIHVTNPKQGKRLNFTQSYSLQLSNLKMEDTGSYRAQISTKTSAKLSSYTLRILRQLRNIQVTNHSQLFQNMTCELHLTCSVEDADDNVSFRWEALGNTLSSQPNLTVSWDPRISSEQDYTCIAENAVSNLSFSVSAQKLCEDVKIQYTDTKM
Experiment: SPR

Going from B1 to B2, the Kd rises from 6 nM to 16 nM (2.7-fold). The first binds more tightly here.

Going from B3 to B4, the Kd falls from 12 nM to 4.1 nM (2.9-fold).

B5 gave a Kd of 0.38 nM.

From patent publication US20260356940 (published 2026)
